Assay results published in US10849992B1, “Methods of screening for sortilin binding antagonists” (ALECTOR LLC, priority 2015, dated 2020).
“Also recorded” adds a separate entry of the source.

What was measured:
[1] = biological target: T1, Sortilin (Homo sapiens, UniProt Q99523); experiment: Cell-based microscopy assay: DyLight-650 PGRN binding and endocytosis; set-up: expressed in transfected cells; host or cells: HEK293T; conditions: 10 μM blocker with 40 nM DyLight-650 PGRN, listed as sortilin pro-peptide
T1 sequence (Q99523 78-831): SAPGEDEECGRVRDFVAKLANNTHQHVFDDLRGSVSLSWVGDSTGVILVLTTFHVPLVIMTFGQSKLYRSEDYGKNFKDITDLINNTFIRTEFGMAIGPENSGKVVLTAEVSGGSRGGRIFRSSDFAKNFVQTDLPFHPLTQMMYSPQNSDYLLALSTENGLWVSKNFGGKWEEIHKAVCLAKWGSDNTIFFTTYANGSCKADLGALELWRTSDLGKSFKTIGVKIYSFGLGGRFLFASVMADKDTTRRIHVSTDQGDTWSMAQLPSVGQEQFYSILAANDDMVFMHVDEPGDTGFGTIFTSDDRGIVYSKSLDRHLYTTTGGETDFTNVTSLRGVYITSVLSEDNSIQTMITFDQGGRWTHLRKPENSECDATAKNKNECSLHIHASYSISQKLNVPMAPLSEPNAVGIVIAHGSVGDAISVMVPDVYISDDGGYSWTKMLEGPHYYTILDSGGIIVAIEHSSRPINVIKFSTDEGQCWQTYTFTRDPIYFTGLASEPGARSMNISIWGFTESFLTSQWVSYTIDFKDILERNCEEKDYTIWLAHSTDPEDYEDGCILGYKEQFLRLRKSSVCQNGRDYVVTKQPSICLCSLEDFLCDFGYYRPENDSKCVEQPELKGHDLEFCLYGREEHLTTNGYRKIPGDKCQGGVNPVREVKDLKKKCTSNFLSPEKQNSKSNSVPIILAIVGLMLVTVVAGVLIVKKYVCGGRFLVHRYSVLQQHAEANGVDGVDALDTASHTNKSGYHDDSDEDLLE
Protocol: HEK293T cells were transiently transfected with constructs for expressing sortilin or LacZ (control) and incubated with PGRN labeled using DyLight-650 (Life Technologies, Carlsbad, Calif.) for up to 60 minutes at 37° C. Binding and endocytosis of PGRN were observed by fluorescence microscopy. Recombinant human Progranulin (Adipogen) was labeled with DyLight 650 (Life Technologies, Carlsbad, Calif.). Cells were transiently transfected with human Sortilin or lacZ (control) and GFP using Fugene and harvested after 24 h. GFP was either expressed by a second vector (Topo3.3, Invitrogen) or located on the same vector, separated by an IRES (pCMV6-AC-IRES-GFP, Origene). Full-length Sortilin was used either untagged (Topo3.3) or with a C-terminal myc tag (pCMV6-AC-IRES-GFP). Cells were then plated on microscopy chambered glass slides coated with poly-1-lysine. After 4-6 h, cells were washed in OptiMem serum-free media, and 40 nM Progranulin-650 was added with or without 10 uM Sortilin pro-peptide as a blocker. Cells were incubated at 37° C. for up to 60′. Subsequently, cells were fixed in 4% paraformaldehyde, washed in PBS and imaged on a Nikon fluorescent microscope.

[2] = biological target: T1, Sortilin; experiment: Cell-based PGRN-conditioned media assay (PGRN ELISA); set-up: expressed in transfected cells; host or cells: HEK293T; conditions: sortilin-expressing HEK293T; 36-48 h; 1 or 10 μM pro-peptide, 6.7 or 67 nM antibody
Protocol: HEK293T cells were transiently transfected with constructs for expressing sortilin or LacZ (control) and incubated with PGRN-conditioned media collected from PGRN transfected HEK293T cells. PGRN levels remaining in the media were measured after 36-48 h using a PGRN ELISA Duoset kit (R&D Systems). Cells were incubated with 1 or 10 μM sortilin pro-peptide, 6.7 nM or 67 nM goat anti-sortilin antibody (SORT1 Ab), or 67 nM control IgG.
To prepare hPGRN-conditioned media, Hek293T cells were transiently transfected with full-length, untagged human PGRN (pCMV-Sport6, Thermo Scientific) using Fugene HD (Promega). Media containing PGRN was collected after 48 h. For the experiment, Hek293T cells were transiently transfected with human Sortilin (untagged in Topo3.3) or lacZ (control, Topo3.3) using Fugene HD. After 4-6 h, media containing a 1:5 dilution of PGRN conditioned media was added to the cells with or without blockers [1 or 10 uM Sortilin pro-peptide; 6.7 or 67 nM goat anti-Sortilin antibody (SORT1 Ab, R&D Systems, AF3154) or control IgG (R&D Systems, AB-108-C)]. Cell supernatant was collected after 48 h and analyzed using a PGRN Elisa Duoset kit (R&D Systems, DY2420).

[3] = biological target: T1, Sortilin; experiment: FACS assay: sortilin-mediated PGRN-DyLight650 binding and endocytosis; assay type: cell-based; set-up: Full-length Sortilin was used either untagged (Topo3.3) or with a C-terminal myc tag (pCMV6-AC-IRES-GFP); myc (only in the pCMV6-AC-IRES-GFP construct); expressed in transfected cells; host or cells: HEK293T; conditions: FIG. 10B
Text: Sortilin-expressing cells were GFP-positive, and untransfected cells were GFP-negative (as labeled in FIG. 10A).
A second assay was developed using DyLight-650-conjugated PGRN protein. In this assay, binding and endocytosis of PGRN were observed using either fluorescence microscopy (FIG. 9A-9F) or FACS (FIGS. 10A and 10B).

Q: How did the “PGRN binding and endocytosis (DyLight-650 fluorescence)” value [1] turn out when “sortilin pro-domain peptide: peptide of the Sortilin1 pro-domain used as a blocker of PGRN binding (QDRLDAPPPPAAPLPRWSGPIGVSWGLRAAAAGGAFPRGGRWRR)” was run?
A: not observed; also recorded: little signal

Q: And the “PGRN levels in the media (rescue of sortilin-mediated reduction)” value [2]?
A: partially rescued

Q: And the “blocking of PGRN binding to transfected cells” value [3]?
A: blocked
